Results from PMC10138814.

Assays:
[1] = target: mCherry-LaM3 complex (llama); experiment: ITC; 100 uM nanobody in the syringe into 10 uM mCherry (or 8.9 uM mCherry-LaM1 or mCherry-LaM3 complex) in the cell; 25 °C; one set of sites
[2] = target: mCherry-LaM1 complex (llama); experiment: as above

B1: LaM8 (VHH)
VHH: QVQLVESGGGLVQAGGSLRLSCAVSGRPFSEYNLGWFRQAPGKEREFVARIRSSGTTVYTDSVKGRFSASRDNAKNMGYLQLNSLEPEDTAVYYCAMSRVDTDSPAFYDYWGQGTQVTVST
Kd [1]: 236 nM | dH [1]: -9.99 kcal/mol | stoichiometry N [1]: 0.799 sites | Kd [2]: 54 nM | dH [2]: -10.3 kcal/mol | stoichiometry N [2]: 0.854 sites
